Values of other authors in publication PMC7650819.

Tests used:
[1] = molecular target: thrombin (human plasma) (Homo sapiens) (UniProt P00734+P00734); test: literature value; conditions: AIR; ABB: 50 mM Tris-HCl, 140 mM NaCl, 1 mM MgCl2, 1% BSA, 0.05% Triton X-100, pH 7.4, overnight at 4 °C; aptamers refolded in 5 mM Tris-HCl, 1 M NaCl, 0.5 mM …
TGF-β1 (Homo sapiens) = TGF-β1 (Homo sapiens) (UniProt P01137); test: literature value; conditions: DNA with phosphorothioates at positions marked by asterisks: CGCTCGGCTTCACGAGATTCGTGTC*GTTGTGTC*C*TGTA*C*C*C*GC*C*TTGA*C*C*A*GTC*A*C*TC*TA*GA*GC*A*TC*C*GGA*C*TG …; AIR; ABB: 50 mM Tris-HCl, 140 mM NaCl, 1 mM MgCl2, 1% BSA, 0.05% Triton X-100, pH 7.4, overnight at 4 °C; aptamers refolded in 5 mM Tris-HCl, 1 M NaCl, 0.5 mM E
Sequence of TGF-β1 (Homo sapiens) (P01137 279-390): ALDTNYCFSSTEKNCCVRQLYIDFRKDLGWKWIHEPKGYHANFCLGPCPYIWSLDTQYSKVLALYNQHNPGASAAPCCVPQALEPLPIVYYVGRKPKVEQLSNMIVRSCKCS

Sequence: TTTTTTTTTTTTTTTTTTTTAGTCCGTGGTAGGGCAGGTTGGGGTGACT [Thrombin 29-mer aptamer]
- Kd [1]: 0.5 nM

Sequence: TTTTTTTTTTTTTTTTTTTTCGCTCGGCTTCACGAGATTCGTGTCGTTGTGTCCTGTACCCGCCTTGACCAGTCACTCTAGAGCATCCGGACTG [TGF-β1 thioaptamer]
- Kd (TGF-β1 (Homo sapiens)): 90 nM

Sequence: TTTTTTTTTTTTTTTTTTTTGGTTGGTGTGGTTGG [Thrombin 15-mer aptamer]
- Kd [1]: 100 nM
